Reference: patent US20190194304A1

Molecular target: C3d, P01024
Assay: SPR, 0.5 µM FH with anti-FH.07 Fab′ (2 to 1 molar ratio) over immobilised C3d
Details: remark: other sources report otherwise

Chain of C3d, P01024 (P01024 1002-1303 limits assumed): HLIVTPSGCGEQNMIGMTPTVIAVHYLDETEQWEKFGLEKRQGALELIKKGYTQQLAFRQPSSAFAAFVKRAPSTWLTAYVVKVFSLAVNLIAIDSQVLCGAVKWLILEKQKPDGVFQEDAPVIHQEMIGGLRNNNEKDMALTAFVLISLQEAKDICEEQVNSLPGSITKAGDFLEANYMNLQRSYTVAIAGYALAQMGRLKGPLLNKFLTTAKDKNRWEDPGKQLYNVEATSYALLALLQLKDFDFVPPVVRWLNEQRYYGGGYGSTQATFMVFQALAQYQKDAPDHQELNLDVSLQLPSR

fold increase of the measured interactions (RU) with anti-FH.07 Fab′ against FH alone: > 2 fold
B1: human factor H, P08603 19-1231 (protein, UniProt P08603 19-1231, looked up)
chain: EDCNELPPRRNTEILTGSWSDQTYPEGTQAIYKCRPGYRSLGNVIMVCRKGEWVALNPLRKCQKRPCGHPGDTPFGTFTLTGGNVFEYGVKAVYTCNEGYQLLGEINYRECDTDGWTNDIPICEVVKCLPVTAPENGKIVSSAMEPDREYHFGQAVRFVCNSGYKIEGDEEMHCSDDGFWSKEKPKCVEISCKSPDVINGSPISQKIIYKENERFQYKCNMGYEYSERGDAVCTESGWRPLPSCEEKSCDNPYIPNGDYSPLRIKHRTGDEITYQCRNGFYPATRGNTAKCTSTGWIPAPRCTLKPCDYPDIKHGGLYHENMRRPYFPVAVGKYYSYYCDEHFETPSGSYWDHIHCTQDGWSPAVPCLRKCYFPYLENGYNQNYGRKFVQGKSIDVACHPGYALPKAQTTVTCMENGWSPTPRCIRVKTCSKSSIDIENGFISESQYTYALKEKAKYQCKLGYVTADGETSGSITCGKDGWSAQPTCIKSCDIPVFMNARTKNDFTWFKLNDTLDYECHDGYESNTGSTTGSIVCGYNGWSDLPICYERECELPKIDVHLVPDRKKDQYKVGEVLKFSCKPGFTIVGPNSVQCYHFGLSPDLPICKEQVQSCGPPPELLNGNVKEKTKEEYGHSEVVEYYCNPRFLMKGPNKIQCVDGEWTTLPVCIVEESTCGDIPELEHGWAQLSSPPYYYGDSVEFNCSESFTMIGHRSITCIHGVWTQLPQCVAIDKLKKCKSSNLIILEEHLKNKKEFDHNSNIRYRCRGKEGWIHTVCINGRWDPEVNCSMAQIQLCPPPPQIPNSHNMTTTLNYRDGEKVSVLCQENYLIQEGEEITCKDGRWQSIPLCVEKIPCSQPPQIEHGTINSSRSSQESYAHGTKLSYTCEGGFRISEENETTCYMGKWSSPPQCEGLPCKSPPEISHGVVAHMSDSYQYGEEVTYKCFEGFGIDGPAIAKCLGEKWSHPPSCIKTDCLSLPSFENAIPMGEKKDVYKAGEQVTYTCATYYKMDGASNVTCINSRWTGRPTCRDTSCVNPPTVQNAYIVSRQMSKYPSGERVRYQCRSPYEMFGDEEVMCLNGNWTEPPQCKDSTGKCGPPPPIDNGDITSFPLSVYAPASSVEYQCQNLYQLEGNKRITCRNGQWSEPPKCLHPCVISREIMENYNIALRWTAKQKLYSRTGESVEFVCKRGYRLSSRSHTLRTTCWDGKLEYPTCAKR
